# Results reported in article PMC9482650, “Quantitative fragmentomics allow affinity mapping of interactomes” (Nature Communications, 2022).
# T1: ARHGEF11, O15085
# T1 sequence (O15085 42-136, limits assumed, looked up): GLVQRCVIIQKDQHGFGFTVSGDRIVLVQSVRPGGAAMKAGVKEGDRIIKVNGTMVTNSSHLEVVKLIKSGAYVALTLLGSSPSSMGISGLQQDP
# T2: GRIP1_5, Q9Y3R0
# T2 sequence (Q9Y3R0 568-668, limits assumed, looked up): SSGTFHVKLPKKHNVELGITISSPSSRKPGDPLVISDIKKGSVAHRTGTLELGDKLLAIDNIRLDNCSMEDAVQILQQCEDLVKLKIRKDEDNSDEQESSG
# T3: GRIP1_7, Q9Y3R0
# T3 sequence (Q9Y3R0 999-1096, limits assumed, looked up): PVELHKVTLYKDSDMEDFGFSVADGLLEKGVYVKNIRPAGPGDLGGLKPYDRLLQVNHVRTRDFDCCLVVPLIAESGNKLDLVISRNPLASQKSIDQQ
# T4: LIN7A, O14910
# T4 sequence (O14910 103-200, limits assumed, looked up): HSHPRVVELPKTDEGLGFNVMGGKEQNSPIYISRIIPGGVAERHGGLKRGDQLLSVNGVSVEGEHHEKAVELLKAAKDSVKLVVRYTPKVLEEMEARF
# T5: MPP6, Q9NZW5
# T5 sequence (Q9NZW5 125-219, limits assumed, looked up): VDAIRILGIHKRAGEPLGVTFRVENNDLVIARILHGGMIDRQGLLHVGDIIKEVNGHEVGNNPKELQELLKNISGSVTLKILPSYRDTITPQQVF
# T6: MPP7, Q5T2T1
# T6 sequence (Q5T2T1 134-230, limits assumed, looked up): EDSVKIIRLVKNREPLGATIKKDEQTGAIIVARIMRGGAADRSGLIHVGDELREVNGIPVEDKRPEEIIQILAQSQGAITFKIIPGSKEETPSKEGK
# T7: PCLO, Q9Y6V0
# T7 sequence (Q9Y6V0 4491-4600, limits assumed, looked up): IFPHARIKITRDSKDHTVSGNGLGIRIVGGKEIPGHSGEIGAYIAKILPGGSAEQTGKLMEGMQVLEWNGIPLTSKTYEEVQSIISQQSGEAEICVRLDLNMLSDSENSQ
# T8: PDZRN3_1, Q9UPQ7
# T8 sequence (Q9UPQ7 244-349, limits assumed, looked up): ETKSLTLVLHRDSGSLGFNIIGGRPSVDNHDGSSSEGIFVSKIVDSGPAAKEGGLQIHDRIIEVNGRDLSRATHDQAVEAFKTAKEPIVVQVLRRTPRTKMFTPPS
# T9: PTPN13_1, Q12923
# T9 sequence (Q12923 1088-1188, limits assumed, looked up): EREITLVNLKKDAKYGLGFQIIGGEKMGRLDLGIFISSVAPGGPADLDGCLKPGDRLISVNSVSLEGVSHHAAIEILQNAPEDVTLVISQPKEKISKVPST
# T10: SYNJ2BP, P57105
# T10 sequence (P57105 8-110, limits assumed, looked up): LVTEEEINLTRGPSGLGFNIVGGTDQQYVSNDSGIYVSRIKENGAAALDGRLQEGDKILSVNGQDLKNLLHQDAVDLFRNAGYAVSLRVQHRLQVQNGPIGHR
# Target: AHNAK1, Q09666
# Sequence (Q09666 4-100): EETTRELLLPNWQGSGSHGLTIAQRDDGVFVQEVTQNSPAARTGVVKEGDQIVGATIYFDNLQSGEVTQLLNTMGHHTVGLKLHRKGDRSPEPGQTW
# Assay: holdup assay
# Parameters: key: below the threshold = too weak to quantify, mostly under pKd 3.1 to 4
# Conditions: plain residues with an end cap or a label only (N-terminal biotin on a linker: ado-ado)
row,pKd,Binder
1,below the threshold,"QRYPGNQTTC [CCL24, O00175]"
2,below the threshold,"HLSTRQGTCV [ATRNL1, Q5VV63]"

# Target: T1, ARHGEF11, O15085
# Assay: holdup assay
# Parameters: key: below the threshold = too weak to quantify, mostly under pKd 3.1 to 4
# Conditions: plain residues with an end cap or a label only (N-terminal biotin on a linker: ado-ado)
row,pKd,Binder
1,below the threshold,"QRYPGNQTTC [CCL24, O00175]"
2,4.02,"HLSTRQGTCV [ATRNL1, Q5VV63]"

# Target: DLG4_2, P78352
# Sequence (P78352 155-259): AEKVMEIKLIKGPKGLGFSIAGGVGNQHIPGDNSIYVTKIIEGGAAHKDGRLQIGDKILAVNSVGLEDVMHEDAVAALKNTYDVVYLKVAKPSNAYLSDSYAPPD
# Assay: holdup assay
# Parameters: key: below the threshold = too weak to quantify, mostly under pKd 3.1 to 4
# Conditions: plain residues with an end cap or a label only (N-terminal biotin on a linker: ado-ado)
row,pKd,Binder
1,3.64,"QRYPGNQTTC [CCL24, O00175]"
2,4.43,"HLSTRQGTCV [ATRNL1, Q5VV63]"

# Target: FRMPD2_1, Q68DX3
# Sequence (Q68DX3 770-861): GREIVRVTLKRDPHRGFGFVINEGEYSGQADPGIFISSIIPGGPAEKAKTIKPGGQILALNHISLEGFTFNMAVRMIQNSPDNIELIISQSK
# Assay: holdup assay
# Parameters: key: below the threshold = too weak to quantify, mostly under pKd 3.1 to 4
# Conditions: plain residues with an end cap or a label only (N-terminal biotin on a linker: ado-ado)
row,pKd,Binder
1,below the threshold,"QRYPGNQTTC [CCL24, O00175]"
2,4.1,"HLSTRQGTCV [ATRNL1, Q5VV63]"

# Target: GIPC2, Q8TF65
# Sequence (Q8TF65 112-203): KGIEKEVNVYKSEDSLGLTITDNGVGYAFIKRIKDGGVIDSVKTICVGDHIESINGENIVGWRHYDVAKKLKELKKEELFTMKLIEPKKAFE
# Assay: holdup assay
# Parameters: key: below the threshold = too weak to quantify, mostly under pKd 3.1 to 4
# Conditions: plain residues with an end cap or a label only (N-terminal biotin on a linker: ado-ado)
row,pKd,Binder
1,below the threshold,"QRYPGNQTTC [CCL24, O00175]"
2,below the threshold,"HLSTRQGTCV [ATRNL1, Q5VV63]"

# Target: GRASP, Q7Z6J2
# Sequence (Q7Z6J2 96-193): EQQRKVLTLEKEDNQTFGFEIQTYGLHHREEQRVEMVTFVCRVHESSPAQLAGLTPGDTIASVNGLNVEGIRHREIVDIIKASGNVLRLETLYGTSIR
# Assay: holdup assay
# Parameters: key: below the threshold = too weak to quantify, mostly under pKd 3.1 to 4
# Conditions: plain residues with an end cap or a label only (N-terminal biotin on a linker: ado-ado)
row,pKd,Binder
1,3.48,"QRYPGNQTTC [CCL24, O00175]"
2,4.28,"HLSTRQGTCV [ATRNL1, Q5VV63]"

# Target: GRID2IP_1, A4D2P6
# Sequence (A4D2P6 1-87): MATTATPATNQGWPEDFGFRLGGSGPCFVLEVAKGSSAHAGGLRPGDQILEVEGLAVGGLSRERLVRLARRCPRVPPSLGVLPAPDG
# Assay: holdup assay
# Parameters: key: below the threshold = too weak to quantify, mostly under pKd 3.1 to 4
# Conditions: plain residues with an end cap or a label only (N-terminal biotin on a linker: ado-ado)
row,pKd,Binder
1,below the threshold,"QRYPGNQTTC [CCL24, O00175]"
2,below the threshold,"HLSTRQGTCV [ATRNL1, Q5VV63]"

# Target: T2, GRIP1_5, Q9Y3R0
# Assay: holdup assay
# Parameters: key: below the threshold = too weak to quantify, mostly under pKd 3.1 to 4
# Conditions: plain residues with an end cap or a label only (N-terminal biotin on a linker: ado-ado)
row,pKd,Binder
1,below the threshold,"QRYPGNQTTC [CCL24, O00175]"
2,below the threshold,"HLSTRQGTCV [ATRNL1, Q5VV63]"

# Target: T3, GRIP1_7, Q9Y3R0
# Assay: holdup assay
# Parameters: key: below the threshold = too weak to quantify, mostly under pKd 3.1 to 4
# Conditions: plain residues with an end cap or a label only (N-terminal biotin on a linker: ado-ado)
row,pKd,Binder
1,below the threshold,"QRYPGNQTTC [CCL24, O00175]"
2,below the threshold,"HLSTRQGTCV [ATRNL1, Q5VV63]"

# Target: GRIP2_3, Q9C0E4
# Sequence (Q9C0E4 238-339): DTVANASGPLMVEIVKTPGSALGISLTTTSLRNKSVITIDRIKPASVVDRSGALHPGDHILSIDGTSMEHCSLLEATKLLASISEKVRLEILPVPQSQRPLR
# Assay: holdup assay
# Parameters: key: below the threshold = too weak to quantify, mostly under pKd 3.1 to 4
# Conditions: plain residues with an end cap or a label only (N-terminal biotin on a linker: ado-ado)
row,pKd,Binder
1,below the threshold,"QRYPGNQTTC [CCL24, O00175]"
2,below the threshold,"HLSTRQGTCV [ATRNL1, Q5VV63]"

# Target: GRIP2_6, Q9C0E4
# Sequence (Q9C0E4 648-740): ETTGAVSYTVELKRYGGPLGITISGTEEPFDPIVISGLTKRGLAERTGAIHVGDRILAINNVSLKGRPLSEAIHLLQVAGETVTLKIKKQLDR
# Assay: holdup assay
# Parameters: key: below the threshold = too weak to quantify, mostly under pKd 3.1 to 4
# Conditions: plain residues with an end cap or a label only (N-terminal biotin on a linker: ado-ado)
row,pKd,Binder
1,below the threshold,"QRYPGNQTTC [CCL24, O00175]"
2,below the threshold,"HLSTRQGTCV [ATRNL1, Q5VV63]"

# Target: HTRA1, Q92743
# Sequence (Q92743 360-477): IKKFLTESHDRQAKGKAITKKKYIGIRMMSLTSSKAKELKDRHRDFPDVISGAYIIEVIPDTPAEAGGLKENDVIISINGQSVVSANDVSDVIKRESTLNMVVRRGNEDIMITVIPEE
# Assay: holdup assay
# Parameters: key: below the threshold = too weak to quantify, mostly under pKd 3.1 to 4
# Conditions: plain residues with an end cap or a label only (N-terminal biotin on a linker: ado-ado)
row,pKd,Binder
1,3.66,"QRYPGNQTTC [CCL24, O00175]"
2,4.91,"HLSTRQGTCV [ATRNL1, Q5VV63]"

# Target: Inadl_4, Q8NI35
# Sequence (Q8NI35 547-651): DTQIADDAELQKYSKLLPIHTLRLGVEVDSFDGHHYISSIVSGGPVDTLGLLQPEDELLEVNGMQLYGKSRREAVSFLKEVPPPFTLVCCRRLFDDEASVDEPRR
# Assay: holdup assay
# Parameters: key: below the threshold = too weak to quantify, mostly under pKd 3.1 to 4
# Conditions: plain residues with an end cap or a label only (N-terminal biotin on a linker: ado-ado)
row,pKd,Binder
1,below the threshold,"QRYPGNQTTC [CCL24, O00175]"
2,below the threshold,"HLSTRQGTCV [ATRNL1, Q5VV63]"

# Target: T4, LIN7A, O14910
# Assay: holdup assay
# Parameters: key: below the threshold = too weak to quantify, mostly under pKd 3.1 to 4
# Conditions: plain residues with an end cap or a label only (N-terminal biotin on a linker: ado-ado)
row,pKd,Binder
1,below the threshold,"QRYPGNQTTC [CCL24, O00175]"
2,below the threshold,"HLSTRQGTCV [ATRNL1, Q5VV63]"

# Target: MAGI1_1, Q96QZ7
# Sequence (Q96QZ7 1-106): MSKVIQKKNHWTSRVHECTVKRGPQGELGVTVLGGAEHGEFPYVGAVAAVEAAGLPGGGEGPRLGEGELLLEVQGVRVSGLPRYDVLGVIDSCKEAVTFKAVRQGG
# Assay: holdup assay
# Parameters: key: below the threshold = too weak to quantify, mostly under pKd 3.1 to 4
# Conditions: plain residues with an end cap or a label only (N-terminal biotin on a linker: ado-ado)
row,pKd,Binder
1,below the threshold,"QRYPGNQTTC [CCL24, O00175]"
2,below the threshold,"HLSTRQGTCV [ATRNL1, Q5VV63]"

# Target: MAGI1_2, Q96QZ7
# Sequence (Q96QZ7 456-580): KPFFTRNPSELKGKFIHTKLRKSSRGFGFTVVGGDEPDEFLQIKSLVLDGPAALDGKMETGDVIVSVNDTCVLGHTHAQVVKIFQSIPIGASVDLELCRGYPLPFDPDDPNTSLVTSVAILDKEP
# Assay: holdup assay
# Parameters: key: below the threshold = too weak to quantify, mostly under pKd 3.1 to 4
# Conditions: plain residues with an end cap or a label only (N-terminal biotin on a linker: ado-ado)
row,pKd,Binder
1,below the threshold,"QRYPGNQTTC [CCL24, O00175]"
2,4.65,"HLSTRQGTCV [ATRNL1, Q5VV63]"

# Target: MAGI2_3, Q86UL8
# Sequence (Q86UL8 600-682): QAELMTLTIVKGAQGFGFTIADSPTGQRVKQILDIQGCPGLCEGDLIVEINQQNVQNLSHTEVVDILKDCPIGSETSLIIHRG
# Assay: holdup assay
# Parameters: key: below the threshold = too weak to quantify, mostly under pKd 3.1 to 4
# Conditions: plain residues with an end cap or a label only (N-terminal biotin on a linker: ado-ado)
row,pKd,Binder
1,below the threshold,"QRYPGNQTTC [CCL24, O00175]"
2,below the threshold,"HLSTRQGTCV [ATRNL1, Q5VV63]"

# Target: MAGI2_5, Q86UL8
# Sequence (Q86UL8 915-1017): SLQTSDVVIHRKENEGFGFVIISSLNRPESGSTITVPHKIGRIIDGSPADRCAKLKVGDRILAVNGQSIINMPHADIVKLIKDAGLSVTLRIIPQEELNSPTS
# Assay: holdup assay
# Parameters: key: below the threshold = too weak to quantify, mostly under pKd 3.1 to 4
# Conditions: plain residues with an end cap or a label only (N-terminal biotin on a linker: ado-ado)
row,pKd,Binder
1,below the threshold,"QRYPGNQTTC [CCL24, O00175]"
2,4.04,"HLSTRQGTCV [ATRNL1, Q5VV63]"

# Target: MAST2, Q6P0Q8
# Sequence (Q6P0Q8 1099-1202): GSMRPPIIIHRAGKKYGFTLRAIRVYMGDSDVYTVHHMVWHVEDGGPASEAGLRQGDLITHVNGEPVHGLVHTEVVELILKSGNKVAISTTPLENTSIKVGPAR
# Assay: holdup assay
# Parameters: key: below the threshold = too weak to quantify, mostly under pKd 3.1 to 4
# Conditions: plain residues with an end cap or a label only (N-terminal biotin on a linker: ado-ado)
row,pKd,Binder
1,4.74,"QRYPGNQTTC [CCL24, O00175]"
2,4.94,"HLSTRQGTCV [ATRNL1, Q5VV63]"

# Target: T5, MPP6, Q9NZW5
# Assay: holdup assay
# Parameters: key: below the threshold = too weak to quantify, mostly under pKd 3.1 to 4
# Conditions: plain residues with an end cap or a label only (N-terminal biotin on a linker: ado-ado)
row,pKd,Binder
1,below the threshold,"QRYPGNQTTC [CCL24, O00175]"
2,below the threshold,"HLSTRQGTCV [ATRNL1, Q5VV63]"

# Target: T6, MPP7, Q5T2T1
# Assay: holdup assay
# Parameters: key: below the threshold = too weak to quantify, mostly under pKd 3.1 to 4
# Conditions: plain residues with an end cap or a label only (N-terminal biotin on a linker: ado-ado)
row,pKd,Binder
1,below the threshold,"QRYPGNQTTC [CCL24, O00175]"
2,below the threshold,"HLSTRQGTCV [ATRNL1, Q5VV63]"

# Target: NHERF4_2, Q86UT5
# Sequence (Q86UT5 220-308): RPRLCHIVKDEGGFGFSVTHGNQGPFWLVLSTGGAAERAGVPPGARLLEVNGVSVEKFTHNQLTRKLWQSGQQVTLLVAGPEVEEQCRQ
# Assay: holdup assay
# Parameters: key: below the threshold = too weak to quantify, mostly under pKd 3.1 to 4
# Conditions: plain residues with an end cap or a label only (N-terminal biotin on a linker: ado-ado)
row,pKd,Binder
1,below the threshold,"QRYPGNQTTC [CCL24, O00175]"
2,below the threshold,"HLSTRQGTCV [ATRNL1, Q5VV63]"

# Target: T7, PCLO, Q9Y6V0
# Assay: holdup assay
# Parameters: key: below the threshold = too weak to quantify, mostly under pKd 3.1 to 4
# Conditions: plain residues with an end cap or a label only (N-terminal biotin on a linker: ado-ado)
row,pKd,Binder
1,below the threshold,"QRYPGNQTTC [CCL24, O00175]"
2,below the threshold,"HLSTRQGTCV [ATRNL1, Q5VV63]"

# Target: T8, PDZRN3_1, Q9UPQ7
# Assay: holdup assay
# Parameters: key: below the threshold = too weak to quantify, mostly under pKd 3.1 to 4
# Conditions: plain residues with an end cap or a label only (N-terminal biotin on a linker: ado-ado)
row,pKd,Binder
1,below the threshold,"QRYPGNQTTC [CCL24, O00175]"
2,3.97,"HLSTRQGTCV [ATRNL1, Q5VV63]"

# Target: T9, PTPN13_1, Q12923
# Assay: holdup assay
# Parameters: key: below the threshold = too weak to quantify, mostly under pKd 3.1 to 4
# Conditions: plain residues with an end cap or a label only (N-terminal biotin on a linker: ado-ado)
row,pKd,Binder
1,below the threshold,"QRYPGNQTTC [CCL24, O00175]"
2,below the threshold,"HLSTRQGTCV [ATRNL1, Q5VV63]"

# Target: SCRIB_2, Q14160
# Sequence (Q14160 857-960): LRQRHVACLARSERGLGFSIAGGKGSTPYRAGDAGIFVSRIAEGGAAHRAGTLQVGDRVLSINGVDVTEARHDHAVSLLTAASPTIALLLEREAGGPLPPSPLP
# Assay: holdup assay
# Parameters: key: below the threshold = too weak to quantify, mostly under pKd 3.1 to 4
# Conditions: plain residues with an end cap or a label only (N-terminal biotin on a linker: ado-ado)
row,pKd,Binder
1,below the threshold,"QRYPGNQTTC [CCL24, O00175]"
2,4.02,"HLSTRQGTCV [ATRNL1, Q5VV63]"

# Target: T10, SYNJ2BP, P57105
# Assay: holdup assay
# Parameters: key: below the threshold = too weak to quantify, mostly under pKd 3.1 to 4
# Conditions: plain residues with an end cap or a label only (N-terminal biotin on a linker: ado-ado)
row,pKd,Binder
1,below the threshold,"QRYPGNQTTC [CCL24, O00175]"
2,5.37,"HLSTRQGTCV [ATRNL1, Q5VV63]"
